Laboratory results published in PMC11681868, “Unveiling the structural mechanisms behind high affinity and selectivity in phosphorylated epitope-specific rabbit antibodies” (The Journal of Biological Chemistry, 2024).

Molecular target: T1, Akt peptide (synthetic peptide; letters match human …)
T1 construct: Akt peptide around 473-Ser, not phosphorylated; also called non-phosphorylated antigen; non-phosphorylated peptide; source: synthetic peptide (SCRUM Inc.)
T1 chain: RPHFPQFSYSAS
Assay: ITC; iTC200; 5 μM scFv in the cell, 50 μM peptide in the syringe; samples dialyzed against PBS; triplicate
Conditions: both partners purified

B1: rabbit antibody A4 scFv (wild type) (scFv, V domains shown)
VH: QEQLMESGGRLVTPGTPLTLTCTASGSDISTYSISWVRQAPGKGLEWIGHIGSSGTQYYASWAKGRFAISRASTTVDLRITGPTTEDTATYFCARRGVGYNLYYNMWGPGTLVTVSL
VL: AIDMTQTPSPVSAAVGGTVTINCQASQSVYNSKNLAWYQQKPGQPPKLLIYDSSTLASGVSSRFRGSGSGTQFTLTISGVQSDDAATYYCQGEFSCSSGDCAGFGGGTEVVVE
notes: VH of rabbit antibody A4; they are in PDB 8JOW (A4 scFv); GS linker of the scFv; PDB 8JOW may hold them; VL (kappa) of rabbit antibody A4; they are in PDB 8JOW; the deposited construct should already hold Ser at L80 (Chothia); Antibody numbering is Chothia; also called A4 WT; source: E. coli BL21(DE3), purified (Ni-NTA, SEC)
- Kd: 1120 nM
